# T1: RB (Homo sapiens, UniProt P06400)
# T1 construct: coding region of RB cDNA was subcloned into pGEX-6P (Amersham/Pharmacia) for generation of GST-RB; made in house
# T1 sequence (P06400 1-928): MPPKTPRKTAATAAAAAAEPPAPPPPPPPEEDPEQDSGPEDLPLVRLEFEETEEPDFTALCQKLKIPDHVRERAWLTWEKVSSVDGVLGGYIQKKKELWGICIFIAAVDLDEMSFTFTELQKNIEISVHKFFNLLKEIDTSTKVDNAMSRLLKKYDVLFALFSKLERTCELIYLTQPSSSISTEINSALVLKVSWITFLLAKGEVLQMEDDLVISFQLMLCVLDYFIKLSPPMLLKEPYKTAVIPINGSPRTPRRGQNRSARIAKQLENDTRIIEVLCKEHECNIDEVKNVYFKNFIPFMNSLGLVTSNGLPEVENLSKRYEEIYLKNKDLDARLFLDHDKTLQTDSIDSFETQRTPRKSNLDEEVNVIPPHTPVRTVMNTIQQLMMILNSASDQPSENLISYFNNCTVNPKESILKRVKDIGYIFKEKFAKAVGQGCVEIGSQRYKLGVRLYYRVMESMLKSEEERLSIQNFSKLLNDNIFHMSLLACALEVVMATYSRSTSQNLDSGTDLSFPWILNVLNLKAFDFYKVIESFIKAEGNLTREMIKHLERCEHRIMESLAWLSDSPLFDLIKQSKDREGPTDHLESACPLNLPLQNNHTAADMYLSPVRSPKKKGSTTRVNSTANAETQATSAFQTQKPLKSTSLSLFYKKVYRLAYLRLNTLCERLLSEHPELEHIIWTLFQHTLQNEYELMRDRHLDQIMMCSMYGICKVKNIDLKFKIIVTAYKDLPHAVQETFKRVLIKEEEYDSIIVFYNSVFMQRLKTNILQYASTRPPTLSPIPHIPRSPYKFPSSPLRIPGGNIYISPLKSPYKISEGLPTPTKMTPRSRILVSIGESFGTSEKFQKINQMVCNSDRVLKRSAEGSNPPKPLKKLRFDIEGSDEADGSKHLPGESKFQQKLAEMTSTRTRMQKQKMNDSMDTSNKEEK
# B1: PRMT3: human protein arginine methyltransferase 3, expression construct (protein)
# chain: CSLASGATGGRGAVENEEDLPELSDSGDEAAWEDEDDADLPHGKQQTPCLFCNRLFTSAEETFSHCKSEHQFNIDSMVHKHGLEFYGYIKLINFIRLKNPTVEYMNSIYNPVPWEKEEYLKPVLEDDLLLQFDVEDLYEPVSVPFSYPNGLSENTSVVEKLKHMEARALSAEAALARAREDLQKMKQFAQDFVMHTDVRTCSSSTSVIADLQEDEDGVYFSSYGHYGIHEEMLKDKIRTESYRDFIYQNPHIFKDKVVLDVGCGTGILSMFAAKAGAKKVLGVDQSEILYQAMDIIRLNKLEDTITLIKGKIEEVHLPVEKVDVIISEWMGYFLLFESMLDSVLYAKNKYLAKGGSVYPDICTISLVAVSDVNKHADRIAFWDDVYGFKMSCMKKAVIPEAVVEVLDPKTLISEPCGIKHIDCHTTSISDLEFSSDFTLKITRTSMCTAIAGYFDIYFEKNCHNRVVFSTGPQSTKTHWKQTVFLLEKPFSVKAGEALKGKVTVHKNKKDPRSLTVTLTLNNSTQTYGLQ
# B2: PRMT2-4A: amino acids 141-144 (ILDV) in the Ado-Met domain altered to four consecutive alanines, SEQ ID NO:6 (protein)
# chain: MATSGDCPRSESQGEEPAECSEAGLLQEGVQPEEFVAIADYAATDETQLSFLRGEKILILRQTTADWWWGERAGCCGYIPANHVGKHVDEYDPEDTWQDEEYFGSYGTLKLHLEMLADQPRTTKYHSVILQNKESLTDKVAAAAGCGTGIISLFCAHYARPRAVYAVEASEMAQHTGQLVLQNGFADIITVYQQKVEDVVLPEKVDVLVSEWMGTCLLFEFMIESILYARDAWLKEDGVIWPTMAALHLVPCSADKDYRSKVLFWDNAYEFNLSALKSLAVKEFFSKPKYNHILKPEDCLSEPCTILQLDMRTVQISDLETLRGELRFDIRKAGTLHGFTAWFSVHFQSLQEGQPPQVLSTGPFHPTTHWKQTLFMMDDPVPVHTGDVVTGSVVLQRNPVWRRHMSVALSWAVTSRQDPTSQKVGEKVFPIWR
# modifications: A synthetic PRMT-2-4A mutant polypeptide
# B3: PRMT2(1-218): deletion mutant lacking the C-terminal domain, retains SH3 domain and a large part of the AdoMet binding domain (protein)
# chain: MATSGDCPRSESQGEEPAECSEAGLLQEGVQPEEFVAIADYAATDETQLSFLRGEKILILRQTTADWWWGERAGCCGYIPANHVGKHVDEYDPEDTWQDEEYFGSYGTLKLHLEMLADQPRTTKYHSVILQNKESLTDKVILDVGCGTGIISLFCAHYARPRAVYAVEASEMAQHTGQLVLQNGFADIITVYQQKVEDVVLPEKVDVLVSEWMGTCLL
# B4: PRMT2(1-95): deletion mutant lacking the C-terminal and AdoMet binding domains, retains the SH3 domain (protein)
# chain: MATSGDCPRSESQGEEPAECSEAGLLQEGVQPEEFVAIADYAATDETQLSFLRGEKILILRQTTADWWWGERAGCCGYIPANHVGKHVDEYDPED
# Tests used:
# [1] = biological target: T1, RB; experiment: In vitro binding assay with GST-RB; details: S35-labeled in vitro translated protein
# Method: The crude cell lysate of the GST-fusion proteins was prepared and purified according to the manufacture's protocol (Amersham/Pharmacia). [^35S]-methionine-labeled protein was produced by in vitro transcription/translation using the TNT T7-coupled reticulocyte lysate system (Promega). [^35S]-methionine-labeled protein and GST-fusion protein bound to glutathione sepharose 4B beads were incubated in 500 μl of HNE buffer (50 mM Hepes, pH 7.8, 150 mM NaCl, 1 mM EDTA, 1 mM DTT, 1% NP40, and 1× protease inhibitor mix (Complete: Roche)) at 4° C. for 1 hour. Beads were washed four times with HNE buffer, and then analyzed on an SDS-PAGE gradient gel (4-15%). For the detection of endogenous PRMT-2 interaction with RB, MEFs were lysed with WCL buffer (50 mM Hepes, pH 7.8, 400 mM NaCl, 2 mM EDTA, 1 mM DTT, 0.2% NP40, 10% Glycerol, 20 mM α-glycerophosphate, 5 mM NaF, 0.1 mM NaVO4, and 1× protease inhibitor mix). Then, 1 mg of whole cell extracts were incubated with HNE buffer without DTT and 3 μg of antibodies as indicated. The immune complexes were isolated using protein G beads, and washed four times with HNE buffer. The precipitated protein was boiled with SDS-loading buffer and resolved on SDS-PAGE. For immunoprecipitation of HA-tagged protein, transfected cells were lysed with RIPA buffer (phosphate buffer saline containing 1% NP40, 0.5% sodium deoxycholate, 0.1% SDS, and 1× Complete), and 100 μg of whole cell lysates were immunoprecipitated with anti-HA antibodies and washed in RIPA buffer. Western blot analysis was performed as described in Tanner et al. (1998). Circ Res, 82, 396-403.
# To test whether PRMT family members interact with RB, S^35-labeled in vitro translated PRMT1, PRMT2, PRMT3, and PRMT4 (CARM1) were incubated with GST-RB fusion proteins or control GST, and co-precipitated labeled proteins were resolved by SDS-PAGE. […] An equal amount of GST-RB and GST were loaded in each lane, verified by Coomassie staining (FIG. 8B).
# [2] = test system: HIV-1 LTR; experiment: HIV-1 reporter transcription, transient co-transfection; type: cell-based, human; details: 293T cells, co-transfection
# Method: (§1) Cell culture, transfection, and reporter gene assays. The E1A-transformed, human kidney cell line, 293, and NIH-3T3 cells were maintained in Dulbecco's Modified Eagle Medium (DMEM) supplemented with 10% fetal calf serum and penicillin-streptomycin at 37° C. in 5% carbon dioxide in tissue culture grade Petri dishes. PRMT-2−/− mouse embryo fibroblasts (MEFs) and wild type MEFs were prepared from day 13.5 embryos and maintained in DMEM supplemented with 10% fetal calf serum. MEFs at passage 4 were used in this experiment. Lipofectamine Plus™ reagent (Boehringer Mannheim) was used to transfect both 293 and NIH-3T3 cells according to directions from the manufacturer. […] TNF-α stimulation of cells was done using recombinant TNF-α (200 U/ml) for 12 hours. Transfected cells were harvested at 36 hours, and CAT activity was assayed on 10 to 100 μg of protein from whole cell extracts. CAT assays were performed essentially as described in Leung, K. & Nabel, G. J. Nature 333, 776-778 (1988). To analyze the κB-reporter activity in MEFs, cells were transfected with the reporter (2×kB-Luc) and PRL-TK vector (Promega) using FuGENE6 transfection reagent (Roche). Luciferase activity was analyzed by Dual-Luciferase Reporter Assay System (Promega).
# To determine whether PRMT-1, 2 or 3 could affect NF-κB function, their potential to regulate effects on transcription of the human immunodeficiency virus type 1 (HIV-1) was examined. Transient co-transfections were performed using PRMT1, PRMT2 and PRMT3 expression plasmids with an HIV-1 reporter plasmid in the human renal epithelial cell line, 293T.
# To determine its dependence on NF-κB, human immunodeficiency virus type 1 (HIV-1) reporter plasmids with wild-type (WT) or mutant (ΔκB) sites were co-transfected transiently with control or PRMT2 expression plasmids in the different cell lines. […] The KB effect was dose-dependent and was also observed with other inducers of NF-κB, including phorbol […] (PMA) (FIG. 2B, right panel).
# [3] = test system: NF-κB; experiment: NF-κB luciferase reporter assay in 293T cells; type: cell-based, human; details: 1 μg expression construct, 100 ng 5 κB luciferase reporter
# Method: as §1, with “Transfected cells were harvested at 36 hours, and CAT activity was assayed on 10 to 100 μg of protein from whole cell extracts.” left out
# To map the domains responsible for inhibition of HIV transcription, truncation and point mutations were made in PRMT2 (FIG. 1D) and co-transfected with an NF-κB reporter in 293T cells. PRMT2-A represents an alternatively spliced form of PRMT2 found in the expressed sequence tag (EST) database. This isoform contains the first 218 amino acids of PRMT2 and differs from full length PRMT2 by the absence of the less conserved COOH-terminal domain. PRMT2-N was generated by introducing a stop codon after amino acid 95 before the putative Ado-Met domain of PRMT2. To analyze the role of the Ado-Met domain further, another mutant, PRMT2-4A, was prepared in which 141ILDV144 (SEQ ID NO:5) in this region were altered to four consecutive alanines to compare the effects of point mutations in this highly conserved region.
# The mechanism and site of action of PRMT2 in the NF-κB signaling pathway was further defined by co-transfection of PRMT2 and its mutants with different regulators in this pathway with an NF-κB reporter in 293T cells (FIG. 2D).
Molecule,binding to RB [1],effect on transcription of the HIV-1 reporter plasmid [2],NF-κB activity [3]
B1,do not bind RB,did not affect transcription,–
B2,–,–,inhibited NF-κB activity
B3,bound GST-RB at levels comparable to that of wild type PRMT2,–,–
B4,did not bind GST-RB,–,–
